Measured values reported in US20220119468A1, “AMYLOID PEPTIDE VARIANTS” (published 2022).

T1: human Islet Amyloid Polypeptide (human)
T1 peptide: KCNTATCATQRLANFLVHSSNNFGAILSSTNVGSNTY


Biological target: T1, human Islet Amyloid Polypeptide
Experiment: cell-based or functional assay

First: KCNTATCVTQRLANFLLRSSNNLGAILSPTNVGSNTY [raccoon IAPP]
Second: KCNTATCATQRLANFLVRSSNNLGAILSPTNVGSNTY [seal IAPP]
The “cell viability of RIN-m cells (MTT viability assay)” value of the first is higher: 72 % cell viability for the first, roughly 62 % cell viability for the second.

Going from KCNTATCATQRLANFLIRSSNNLGAILSPTNVGSNTY [cat IAPP] to KCNTATCVTQRLADFLVRSSSNIGAIYSPTNVGSNTY [chicken IAPP], the “cell viability of RIN-m cells (MTT viability assay)” value rises from roughly 62 % cell viability to 76 % cell viability.
